# Results from US20140087995A1 (published 2014).
# Numbered stars: 1 amine (or outer) side, 2 acyl side, 3 side chain; on linkers, the order of the positions; unused ones are H or OH. Bridge positions count the residues as written; N and C are the ends. Side chains are listed from the residue outwards. Ends that are not written are not given here. * marks the point of attachment. C20 diacid = O=C(O)CCCCCCCCCCCCCCCCCCC(=O)*; γGlu = O=C(O)[C@H](CCC(=O)[*:2])N[*:1]
# B1: [Asp14,Arg17,Pro21,Pro27,Arg35]-h-amylin (peptide)
# peptide: KCNTATCATQRLADFLRHSSPNFGAIPSSTNVGSRTY-NH2
# modifications: disulfide 2-7
# B2: N^ε1-[(4S)-4-carboxy-4-[[(4S)-4-carboxy-4-(19-carboxynonadecanoylamino)butanoyl]amino]butanoyl]-[Glu14,Arg17,Pro21,Pro27,Pro34,Phe37]-h-amylin (peptide)
# peptide: K([γGlu-γGlu-C20 diacid])CNTATCATQRLAEFLRHSSPNFGAIPSSTNVGPNTF-NH2
# modifications: disulfide 2-7; N-terminus assumed
# SMILES: CC[C@H](C)[C@H](NC(=O)[C@H](C)NC(=O)CNC(=O)[C@H](Cc1ccccc1)NC(=O)[C@H](CC(N)=O)NC(=O)[C@@H]1CCCN1C(=O)[C@H](CO)NC(=O)[C@H](CO)NC(=O)[C@H](Cc1c[nH]cn1)NC(=O)[C@H](CCCNC(=N)N)NC(=O)[C@H](CC(C)C)NC(=O)[C@H](Cc1ccccc1)NC(=O)[C@H](CCC(=O)O)NC(=O)[C@H](C)NC(=O)[C@H](CC(C)C)NC(=O)[C@H](CCCNC(=N)N)NC(=O)[C@H](CCC(N)=O)NC(=O)[C@@H](NC(=O)[C@H](C)NC(=O)[C@@H]1CSSC[C@H](NC(=O)[C@@H](N)CCCCNC(=O)CC[C@H](NC(=O)CC[C@H](NC(=O)CCCCCCCCCCCCCCCCCCC(=O)O)C(=O)O)C(=O)O)C(=O)N[C@@H](CC(N)=O)C(=O)N[C@@H]([C@@H](C)O)C(=O)N[C@@H](C)C(=O)N[C@@H]([C@@H](C)O)C(=O)N1)[C@@H](C)O)C(=O)N1CCC[C@H]1C(=O)N[C@@H](CO)C(=O)N[C@@H](CO)C(=O)N[C@H](C(=O)N[C@@H](CC(N)=O)C(=O)N[C@H](C(=O)NCC(=O)N1CCC[C@H]1C(=O)N[C@@H](CC(N)=O)C(=O)N[C@H](C(=O)N[C@@H](Cc1ccccc1)C(N)=O)[C@@H](C)O)C(C)C)[C@@H](C)O
# B3: N^ε1-[(4S)-4-carboxy-4-[[(4S)-4-carboxy-4-(19-carboxynonadecanoylamino)butanoyl]amino]butanoyl]-[His14,Arg17,Pro21,Pro27]-h-amylin (peptide)
# peptide: K([γGlu-γGlu-C20 diacid])CNTATCATQRLAHFLRHSSPNFGAIPSSTNVGSNTY-NH2
# modifications: disulfide 2-7; N-terminus assumed
# SMILES: CC[C@H](C)[C@H](NC(=O)[C@H](C)NC(=O)CNC(=O)[C@H](Cc1ccccc1)NC(=O)[C@H](CC(N)=O)NC(=O)[C@@H]1CCCN1C(=O)[C@H](CO)NC(=O)[C@H](CO)NC(=O)[C@H](Cc1c[nH]cn1)NC(=O)[C@H](CCCNC(=N)N)NC(=O)[C@H](CC(C)C)NC(=O)[C@H](Cc1ccccc1)NC(=O)[C@H](Cc1c[nH]cn1)NC(=O)[C@H](C)NC(=O)[C@H](CC(C)C)NC(=O)[C@H](CCCNC(=N)N)NC(=O)[C@H](CCC(N)=O)NC(=O)[C@@H](NC(=O)[C@H](C)NC(=O)[C@@H]1CSSC[C@H](NC(=O)[C@@H](N)CCCCNC(=O)CC[C@H](NC(=O)CC[C@H](NC(=O)CCCCCCCCCCCCCCCCCCC(=O)O)C(=O)O)C(=O)O)C(=O)N[C@@H](CC(N)=O)C(=O)N[C@@H]([C@@H](C)O)C(=O)N[C@@H](C)C(=O)N[C@@H]([C@@H](C)O)C(=O)N1)[C@@H](C)O)C(=O)N1CCC[C@H]1C(=O)N[C@@H](CO)C(=O)N[C@@H](CO)C(=O)N[C@H](C(=O)N[C@@H](CC(N)=O)C(=O)N[C@H](C(=O)NCC(=O)N[C@@H](CO)C(=O)N[C@@H](CC(N)=O)C(=O)N[C@H](C(=O)N[C@@H](Cc1ccc(O)cc1)C(N)=O)[C@@H](C)O)C(C)C)[C@@H](C)O
# notes: also called compound 92
# B4: N^ε1-[(4S)-4-carboxy-4-[[(4S)-4-carboxy-4-(19-carboxynonadecanoylamino)butanoyl]amino]butanoyl]-[Ser14,Arg17,Pro21,Pro27,Pro34,Glu35]-h-amylin (peptide)
# peptide: K([γGlu-γGlu-C20 diacid])CNTATCATQRLASFLRHSSPNFGAIPSSTNVGPETY-NH2
# modifications: disulfide 2-7; N-terminus assumed
# SMILES: CC[C@H](C)[C@H](NC(=O)[C@H](C)NC(=O)CNC(=O)[C@H](Cc1ccccc1)NC(=O)[C@H](CC(N)=O)NC(=O)[C@@H]1CCCN1C(=O)[C@H](CO)NC(=O)[C@H](CO)NC(=O)[C@H](Cc1c[nH]cn1)NC(=O)[C@H](CCCNC(=N)N)NC(=O)[C@H](CC(C)C)NC(=O)[C@H](Cc1ccccc1)NC(=O)[C@H](CO)NC(=O)[C@H](C)NC(=O)[C@H](CC(C)C)NC(=O)[C@H](CCCNC(=N)N)NC(=O)[C@H](CCC(N)=O)NC(=O)[C@@H](NC(=O)[C@H](C)NC(=O)[C@@H]1CSSC[C@H](NC(=O)[C@@H](N)CCCCNC(=O)CC[C@H](NC(=O)CC[C@H](NC(=O)CCCCCCCCCCCCCCCCCCC(=O)O)C(=O)O)C(=O)O)C(=O)N[C@@H](CC(N)=O)C(=O)N[C@@H]([C@@H](C)O)C(=O)N[C@@H](C)C(=O)N[C@@H]([C@@H](C)O)C(=O)N1)[C@@H](C)O)C(=O)N1CCC[C@H]1C(=O)N[C@@H](CO)C(=O)N[C@@H](CO)C(=O)N[C@H](C(=O)N[C@@H](CC(N)=O)C(=O)N[C@H](C(=O)NCC(=O)N1CCC[C@H]1C(=O)N[C@@H](CCC(=O)O)C(=O)N[C@H](C(=O)N[C@@H](Cc1ccc(O)cc1)C(N)=O)[C@@H](C)O)C(C)C)[C@@H](C)O
# notes: also called compound 120
# B5: N^-1-[(4S)-4-carboxy-4-(19-carboxynonadecanoylamino)butanoyl]-Gly[Arg1,His14,Arg17,Pro21,Pro27,His34]-h-amylin (peptide)
# peptide: {C20 diacid-γGlu}-GRCNTATCATQRLAHFLRHSSPNFGAIPSSTNVGHNTY-NH2
# modifications: disulfide 3-8
# SMILES: CC[C@H](C)[C@H](NC(=O)[C@H](C)NC(=O)CNC(=O)[C@H](Cc1ccccc1)NC(=O)[C@H](CC(N)=O)NC(=O)[C@@H]1CCCN1C(=O)[C@H](CO)NC(=O)[C@H](CO)NC(=O)[C@H](Cc1c[nH]cn1)NC(=O)[C@H](CCCNC(=N)N)NC(=O)[C@H](CC(C)C)NC(=O)[C@H](Cc1ccccc1)NC(=O)[C@H](Cc1c[nH]cn1)NC(=O)[C@H](C)NC(=O)[C@H](CC(C)C)NC(=O)[C@H](CCCNC(=N)N)NC(=O)[C@H](CCC(N)=O)NC(=O)[C@@H](NC(=O)[C@H](C)NC(=O)[C@@H]1CSSC[C@H](NC(=O)[C@H](CCCNC(=N)N)NC(=O)CNC(=O)CC[C@H](NC(=O)CCCCCCCCCCCCCCCCCCC(=O)O)C(=O)O)C(=O)N[C@@H](CC(N)=O)C(=O)N[C@@H]([C@@H](C)O)C(=O)N[C@@H](C)C(=O)N[C@@H]([C@@H](C)O)C(=O)N1)[C@@H](C)O)C(=O)N1CCC[C@H]1C(=O)N[C@@H](CO)C(=O)N[C@@H](CO)C(=O)N[C@H](C(=O)N[C@@H](CC(N)=O)C(=O)N[C@H](C(=O)NCC(=O)N[C@@H](Cc1c[nH]cn1)C(=O)N[C@@H](CC(N)=O)C(=O)N[C@H](C(=O)N[C@@H](Cc1ccc(O)cc1)C(N)=O)[C@@H](C)O)C(C)C)[C@@H](C)O
# notes: 38 residues; also called compound 100
# B6: N^-1-[(4S)-4-carboxy-4-(19-carboxynonadecanoylamino)butanoyl]-Gly[Arg1,Ala14,Arg17,Pro21,Pro27,His34]-h-amylin (peptide)
# peptide: {C20 diacid-γGlu}-GRCNTATCATQRLAAFLRHSSPNFGAIPSSTNVGHNTY-NH2
# modifications: disulfide 3-8
# SMILES: CC[C@H](C)[C@H](NC(=O)[C@H](C)NC(=O)CNC(=O)[C@H](Cc1ccccc1)NC(=O)[C@H](CC(N)=O)NC(=O)[C@@H]1CCCN1C(=O)[C@H](CO)NC(=O)[C@H](CO)NC(=O)[C@H](Cc1c[nH]cn1)NC(=O)[C@H](CCCNC(=N)N)NC(=O)[C@H](CC(C)C)NC(=O)[C@H](Cc1ccccc1)NC(=O)[C@H](C)NC(=O)[C@H](C)NC(=O)[C@H](CC(C)C)NC(=O)[C@H](CCCNC(=N)N)NC(=O)[C@H](CCC(N)=O)NC(=O)[C@@H](NC(=O)[C@H](C)NC(=O)[C@@H]1CSSC[C@H](NC(=O)[C@H](CCCNC(=N)N)NC(=O)CNC(=O)CC[C@H](NC(=O)CCCCCCCCCCCCCCCCCCC(=O)O)C(=O)O)C(=O)N[C@@H](CC(N)=O)C(=O)N[C@@H]([C@@H](C)O)C(=O)N[C@@H](C)C(=O)N[C@@H]([C@@H](C)O)C(=O)N1)[C@@H](C)O)C(=O)N1CCC[C@H]1C(=O)N[C@@H](CO)C(=O)N[C@@H](CO)C(=O)N[C@H](C(=O)N[C@@H](CC(N)=O)C(=O)N[C@H](C(=O)NCC(=O)N[C@@H](Cc1c[nH]cn1)C(=O)N[C@@H](CC(N)=O)C(=O)N[C@H](C(=O)N[C@@H](Cc1ccc(O)cc1)C(N)=O)[C@@H](C)O)C(C)C)[C@@H](C)O
# notes: 38 residues
# Molecular target: T1, rat calcitonin receptor (rat, UniProt P32214 25-516)
# T1 construct: whole, on cells; Used as membranes prepared from the transfected cells (Assay VIII); also called rCTR; rat calcitonin (a) receptor
# T1 sequence (looked up): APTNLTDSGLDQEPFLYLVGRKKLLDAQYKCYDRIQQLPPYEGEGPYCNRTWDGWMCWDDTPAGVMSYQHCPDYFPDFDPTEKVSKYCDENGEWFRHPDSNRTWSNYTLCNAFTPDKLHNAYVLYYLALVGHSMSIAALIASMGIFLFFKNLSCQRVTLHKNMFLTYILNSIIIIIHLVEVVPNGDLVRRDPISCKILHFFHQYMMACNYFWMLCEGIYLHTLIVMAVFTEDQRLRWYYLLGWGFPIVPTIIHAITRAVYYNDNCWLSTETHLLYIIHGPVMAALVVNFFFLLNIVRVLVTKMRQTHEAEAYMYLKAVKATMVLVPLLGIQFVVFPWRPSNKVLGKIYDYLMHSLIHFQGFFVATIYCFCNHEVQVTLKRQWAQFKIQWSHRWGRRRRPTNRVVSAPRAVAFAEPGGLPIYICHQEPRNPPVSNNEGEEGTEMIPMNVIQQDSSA
# Experiment: SPA competition binding, displacement of 125I-calcitonin from membranes of BHK tk'ts 13 cells transfected with rat calcitonin receptor (Assay VIII)
row,Binder,IC50
1,B1,30.9 nM

# Molecular target: T2, human calcitonin receptor (human, UniProt P30988 25-474)
# T2 sequence (looked up): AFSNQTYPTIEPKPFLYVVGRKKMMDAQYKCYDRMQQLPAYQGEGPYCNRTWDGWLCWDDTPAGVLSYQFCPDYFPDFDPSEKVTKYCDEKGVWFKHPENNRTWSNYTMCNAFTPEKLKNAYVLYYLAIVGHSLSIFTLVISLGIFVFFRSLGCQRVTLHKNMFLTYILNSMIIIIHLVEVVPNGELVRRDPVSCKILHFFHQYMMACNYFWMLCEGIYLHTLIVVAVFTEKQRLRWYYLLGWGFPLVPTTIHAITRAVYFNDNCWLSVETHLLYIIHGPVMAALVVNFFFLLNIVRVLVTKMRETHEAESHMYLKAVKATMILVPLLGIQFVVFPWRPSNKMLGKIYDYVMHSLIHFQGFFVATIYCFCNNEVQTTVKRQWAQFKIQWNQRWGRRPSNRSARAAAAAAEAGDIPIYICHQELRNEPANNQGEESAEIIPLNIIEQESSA
# Experiment: cell-based or functional assay
row,Binder,hCTR funct. EC50 (pM)
1,B2,2140 pM
2,B3,2380 pM
3,B4,887 pM
4,B5,1730 pM
5,B6,537 pM
